Columns and labels:
murine lung fibroblasts = experiment: Proliferation assay, [3H]-thymidine incorporation after FXIIa stimulation; assay type: cell-based; settings: for FXIIa-induced proliferation ([3H]-thymidine incorporation): added or preincubated 1-2 hours before FXIIa, 10.0 μM PD98059, 5 μM SP600125, 0.7 μM Wortmannin, 3 μM SB203580, blocking antibodies 5 μg/ml
Method: Human lung specimens of the pulmonary parenchyma and mouse lungs were chopped into <1 mm^3 pieces. The minced pieces were washed twice with PBS and then plated in 100-mm dishes (Greiner-bio-one, Frickenhausen, Germany). The specimens were cultured with Dulbecco's modified Eagle's medium (DMEM; Invitrogen, Karlsruhe, Germany) supplemented with 10% fetal calf serum (FCS; HyClone, South Logan, UT), and 1% penicillin/streptomycin (Invitrogen) in humidified atmosphere of 5% CO2 at 37° C. Purity of isolated fibroblasts was verified by positive staining for vimentin, fibronectin and collagen IV. All experiments were carried out with lung fibroblasts from passages 3-4. The mouse NIH3T3 fibroblasts were cultured in DMEM supplemented with 10% FCS, and 1% penicillin/streptomycin in humidified atmosphere of 5% CO2 at 37° C. The primary murine lung fibroblasts were seeded in 48-well plates and starved in serum free DMEM (Dulbecco's Modified Eagle's Medium) for 24 hours prior to FXIIa (American Diagnostica, Stamford, Conn.) stimulation. In some experiments cells were preincubated with 5 μg/ml anti-uPAR (R&D Systems, Wiesbaden, Germany), anti-β1-integrin or anti-α5-integrin (both from Millipore, Billerica, Mass.) blocking antibodies 1-2 hours before exposure to FXIIa. In addition in some experiment 10.0 μM PD98059, 5 μM SP600125, 0.7 μM Wortmannin, 3 μM SB203580 (all from Calbiochem, Darmstadt, Germany) were added to the cell culture medium 1-2 hours prior to the addition of FXIIa. Cells were treated with 3-9 μg/ml FXIIa alone or in the presence of its specific inhibitors: Corn Trypsin Inhibitor ([…]-chloromethylketone (PCK, Bachem, Weil am Rhein, Germany) or uPAR synthetic peptides. After 24-36 hours the cells were exposed to [3H]Thymidine (0.2 μCi per well) for 6-12 hours, rinsed three times with PBS and solubilized with 0.2 ml 0.5M sodium hydroxide. 0.1 ml of the solubilized material was quantified by liquid scintillation counting (TRI-CARB® 1500, A Canbera Company, Meriden, Conn.). [^3H]Thymidine incorporation was expressed as absolute radioactivity (counts per minute per well).

FXII [1] = experiment: TGF-β1-induced FXII expression in HLF; assay type: cell-based, human; settings: for FXII expression in response to TGF-β1 (Western blot): HLF treated with inhibitor 1 h prior to TGF-β1 for 48 h
Method: Human lung specimens of the pulmonary parenchyma and mouse lungs were chopped into <1 mm^3 pieces. The minced pieces were washed twice with PBS and then plated in 100-mm dishes (Greiner-bio-one, Frickenhausen, Germany). The specimens were cultured with Dulbecco's modified Eagle's medium (DMEM; Invitrogen, Karlsruhe, Germany) supplemented with 10% fetal calf serum (FCS; HyClone, South Logan, UT), and 1% penicillin/streptomycin (Invitrogen) in humidified atmosphere of 5% CO2 at 37° C. Purity of isolated fibroblasts was verified by positive staining for vimentin, fibronectin and collagen IV. All experiments were carried out with lung fibroblasts from passages 3-4. The mouse NIH3T3 fibroblasts were cultured in DMEM supplemented with 10% FCS, and 1% penicillin/streptomycin in humidified atmosphere of 5% CO2 at 37° C.
(§1) Proteins separated on SDS polyacrylamide gel were transferred to a PVDF membrane (Amersham Biosciences, Freiburg, Germany) using wet transfer technique in transfer buffer (25 mM Tris, 192 mM Glycine, 20% (v/v) Methanol) for 1 h at 100V. After blocking with 5% non-fat dry milk in tris-buffered saline (TBS; 25 mM Tris-Cl, 150 mM NaCl, pH 7.5) containing 0.1% (v/v) Tween 20 (TBS-T), the membranes were incubated at 4° C. overnight with appropriate primary antibody diluted in 1% BSA in TBS-T. After 1 h incubation with peroxidase-labelled secondary antibody (all from Dako, Gostrup, Denmark) proteins were detected using ECL Plus Kit (Amersham Biosciences, Freiburg, Germany). To determine the amounts of protein loaded on the gel, blots were in 1 hour (stripping buffer: 100 mM Glycine, 1% HCl) and reprobed using an anti-β-actin or appropriate anti-pan antibody.
Pre-designed, commercially available siRNA sequences directed against human Smad 3 (Dharmacon, Chicago, Ill.), human JNK1 (Abnova, Heidelberg, Germany), and an universal negative-control siRNA (Ambion, Austin, Tex.) were employed. Cells were treated with siRNA (250 nM each) using the X-treme Gene siRNA Transfection Reagent (Roche). The siRNA-mediated downregulation of the target genes was assessed 72 h after transfection by Western blotting.

FXII [2] = target: T1, FXII (Homo sapiens, UniProt P00748); experiment: FXII activity assay using chromogenic substrate, BALF from IPF patients; assay type: biochemical
T1 construct: increased enzymatic activity FXII in broncholaveolar lavage fluid (BALF) from IPF patients; from tissue; host or cells: bronchoalveolar lavage fluid (BALF) of IPF patients and donors
T1 sequence (P00748 20-615): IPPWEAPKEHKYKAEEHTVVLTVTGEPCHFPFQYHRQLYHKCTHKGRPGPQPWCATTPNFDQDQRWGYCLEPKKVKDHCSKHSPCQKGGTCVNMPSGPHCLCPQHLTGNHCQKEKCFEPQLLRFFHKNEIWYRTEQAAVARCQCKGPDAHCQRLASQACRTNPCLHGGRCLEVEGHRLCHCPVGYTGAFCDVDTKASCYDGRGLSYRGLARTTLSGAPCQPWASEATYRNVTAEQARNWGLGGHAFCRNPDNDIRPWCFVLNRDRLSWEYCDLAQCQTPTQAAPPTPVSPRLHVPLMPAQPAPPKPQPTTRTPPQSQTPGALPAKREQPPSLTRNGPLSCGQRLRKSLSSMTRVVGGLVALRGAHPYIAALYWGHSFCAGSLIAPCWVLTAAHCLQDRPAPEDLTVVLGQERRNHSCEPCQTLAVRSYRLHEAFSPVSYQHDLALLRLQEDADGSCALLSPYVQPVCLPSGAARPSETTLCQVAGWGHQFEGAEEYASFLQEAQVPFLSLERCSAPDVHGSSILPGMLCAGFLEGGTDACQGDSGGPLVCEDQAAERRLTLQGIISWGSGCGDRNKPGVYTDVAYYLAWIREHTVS
From the text: A test for determining the catalytic activity of FXIIa is described in Kannemeier C, Shibamiya A, Nakazawa F, Trusheim H, Ruppert C, Markart P, Song Y, Tzima E, Kennerknecht E, Niepmann M, Bruehl M L, Sedding D, Massberg S, Gunther A, Engelmann B, Preissner K T. Extracellular RNA constitutes a natural procoagulant cofactor in blood coagulation. Proc Natl Acad Sci USA. 104:6388-6393, 2007. Briefly, the FXIIa-sample and a chromogenic substrate peptide is mixed, and the release of p-nitroanilin is followed over time in a photometer at 405 nm. A compound is suitable as an inhibitor of the catalytic, in particular the enzymatic activity of FXIIa if it is capable of reducing the catalytic activity in that assay in a significant manner, preferably by at least 10%, more preferably by at least 25%, most preferably by at least 50% such as at least 75% or even at least 90%.

Akt = experiment: Western blot of Akt phosphorylation after FXIIa exposure; assay type: cell-based, murine; settings: after 30 min of FXIIa exposure
Method: as §1

p44/42 = experiment: Western blot of p44/42 phosphorylation after FXIIa exposure; assay type: cell-based, murine; settings: after 30 min of FXIIa exposure
Method: as §1

[3] = tested on: bleomycin induced lung fibrosis; experiment: Bleomycin induced lung fibrosis in mice with intratracheal CTI
From the text: Male mice weighing between 20-22 g were used in all experiments. Animals were kept according to NIH guidelines and experiments were undertaken with permission of local authorities. The animals were anesthetized by intraperitoneal injection of a mixture of ketamine hydrochloride and xylazine hydrochloride. Bleomycin in dosis 5U/kg body weight was given as aerosol. For bleomycin delivery, animals were orotracheally intubated and mechanically ventilated. A microsprayer (Penn-Century Inc, Philadelphia, Pa.) was filled with 100 μl of saline solution containing bleomycin, introduced into the tracheal cannula, positioned slightly above the carina and aerosol generation was achieved under end-expiratory breath arrest by rapidly emptying the syringe. Controls mice received vehicle only (0.9% saline). 5 mg/kg CTI and 8 mg/kg PCK, both diluted in 0.9% saline, were administrated intratracheally on day 9, 12, 15 and 18 in dosis or of mouse body weight, respectively. The mice were sacrificed after 21 days post application (if not indicated in the text) with a lethal dose of ketamine and xylazine.
Mice were tracheotomised and ventilated in a volume driven mode at a positive end-expiratory pressure of 0 kPa. Respiration rate was set at 20 breaths·min^−1 and ventilation pressure was recorded while inflating the lung at a tidal volume of 200 μL.
After sacrifice of animals, the chest was opened and the lungs were flushed via a catheter that was placed into the pulmonary artery with PBS buffer. Once the effluent was clear of blood, lungs were removed and placed in paraformaldehyde or nitrogen for further examination. For cells isolation lungs were placed in PBS buffer.
Paraffin-embedded, formalin-fixed lung tissue was sectioned at 5 microns and processed for immunohistochemical staining using appropriate primary antibody and ZytoChem Plus AP-Fast Red Kit according to the manufacturer's instructions (Zytomed Systems, Berlin, Germany). Negative controls were obtained in all cases by omitting the primary antibody.

cyclin D1 = experiment: Immunoblot of cyclin D1 expression after FXIIa stimulation; assay type: cell-based, murine; settings: 6 hours after 6 μg/ml FXIIa stimulation
Method: as §1

[4] = FIG. 25D,E, bleomycin application
[5] = day 21 after bleomycin, CTI 5 mg/kg intratracheally
[6] = saline control animals which received CTI

COc1cccc(-c2cc(=O)c3ccccc3o2)c1N [PD98059, reference compound]
FXIIa-induced proliferation ([3H]-thymidine incorporation) (murine lung fibroblasts): reduction of murine lung fibroblasts proliferation | FXII expression in response to TGF-β1 (Western blot) (FXII [1]): No change in FXII expression

C[S+]([O-])c1ccc(-c2nc(-c3ccncc3)c(-c3ccc(F)cc3)[nH]2)cc1 (stereo not drawn) [SB203580, reference compound]
FXIIa-induced proliferation ([3H]-thymidine incorporation) (murine lung fibroblasts): No change in DNA sythesis | FXII expression in response to TGF-β1 (Western blot) (FXII [1]): No change in FXII expression

TGF-β1: cytokine (R&D Systems) used at 10 ng/ml to stimulate cells
synthesis of FXII in HLF (FXII [1]; exposure to 10 ng/ml TGF-β1): stimulated the synthesis of FXII in a time dependent manner

B1: CTI: Corn Trypsin Inhibitor, a specific FXII activity inhibitor (Calbiochem) (protein)
chain: SAGTSCVPGWAIPHNPLPSCRWYVTSRTCGIGPRLPWPELKRRCCRELADIPAYCRCTALSILMDGAIPPGPDAQLEGRLEDLPGCPREVQRGFAATLVTEAECNLATIS
FXII activity (chromogenic substrate) (FXII [2]): blockade of FXII activity | FXIIa-induced proliferation ([3H]-thymidine incorporation) (murine lung fibroblasts): blocked | Akt phosphorylation (Akt): attenuated | p44/42 phosphorylation (p44/42): attenuated | lung remodelling and collagen deposition ([3]; FIG. 25A, bleomycin-treated mice): largely protected against lung remodelling and collagen deposition | survival curves (Kaplan-Meier plot) ([3]; FIG. 25B, bleomycin-treated mice): significantly protected | increase in collagen content [3, 4]: significantly prevented | increase in septum thickness [3, 4]: significantly prevented | collagen accumulation (Masson-Trichrom staining) [3, 5]: markedly reduced | histologic findings in the lungs (fibrotic lesions) [3, 5]: less fibrotic lesions | lung compliance ([3]; day 21 after bleomycin, CTI 5 mg/kg intratracheally at day 9, 12, 15 and 18): significantly improved | mortality ([3]; day 21 post bleomycin challenge, CTI 5 mg/kg intratracheally at day 9, 12, 15 and 18): 20% | histological changes in the lung [3, 6]: no histological changes in the lung | inflammatory cells infiltration into airspaces [3, 6]: mild degree of inflammatory cells infiltration into airspaces

B2: FXIIa: activated factor XII (American Diagnostica) used to stimulate fibroblasts (protein)
chain: IPPWEAPKEHKYKAEEHTVVLTVTGEPCHFPFQYHRQLYHKCTHKGRPGPQPWCATTPNFDQDQRWGYCLEPKKVKDHCSKHSPCQKGGTCVNMPSGPHCLCPQHLTGNHCQKEKCFEPQLLRFFHKNEIWYRTEQAAVARCQCKGPDAHCQRLASQACRTNPCLHGGRCLEVEGHRLCHCPVGYTGAFCDVDTKASCYDGRGLSYRGLARTTLSGAPCQPWASEATYRNVTAEQARNWGLGGHAFCRNPDNDIRPWCFVLNRDRLSWEYCDLAQCQTPTQAAPPTPVSPRLHVPLMPAQPAPPKPQPTTRTPPQSQTPGALPAKREQPPSLTRNGPLSCGQRLRKSLSSMTRVVGGLVALRGAHPYIAALYWGHSFCAGSLIAPCWVLTAAHCLQDRPAPEDLTVVLGQERRNHSCEPCQTLAVRSYRLHEAFSPVSYQHDLALLRLQEDADGSCALLSPYVQPVCLPSGAARPSETTLCQVAGWGHQFEGAEEYASFLQEAQVPFLSLERCSAPDVHGSSILPGMLCAGFLEGGTDACQGDSGGPLVCEDQAAERRLTLQGIISWGSGCGDRNKPGVYTDVAYYLAWIREHTVS
DNA synthesis ([3H]-thymidine incorporation) after FXIIa treatment (murine lung fibroblasts; increasing concentration of FXIIa): dose-dependent increase | cyclin D expression (cyclin D1): increased
